Six molecules from US20190275084A1 (KYMAB, published 2019) can be followed below.

Assay [1] concerns the target T1, Recombinant Human OX40L (Leader sequence, Isoleucine Zipper and FLAG Sequence Included) (human).
T1 construct: It was used biotinylated in the HTRF assays and unlabelled in SPR and in the IL-2 release assay; also called hOX40L; recombinant hOX40L
The assay is described as follows: SPR (ProteOn XPR36), apparent affinity, antibody captured on anti-mouse IgG, hOX40L at 256 nM, 1:1 model, 25 C. The method, then: (§1) SPR analysis was carried out using the ProteOn™ XPR36 Array System (BioRad). Anti-mouse IgG (GE Healthcare BR-1008-38) was immobilised on a GLM biosensor surface using amine coupling, the surface was then blocked using 1 M ethanolamine. Test antibodies were captured on this surface and recombinant hOX40L (human and rhesus) were used at a single concentration of 256 nM, binding sensorgrams were double referenced using a buffer injection (i.e. 0 nM) to remove baseline drift and injection artefacts. Apparent affinities for the OX40L-antibody interaction were determined using the 1:1 model inherent to the ProteOn XPR36 analysis software. The assay was run using HBS-EP (Teknova) as running buffer and carried out at 25° C.

The target in assay [2] is T1, Recombinant Human OX40L (Leader …). Put plainly: cell-based or functional assay.
Assay [3] has the same target. Put plainly: HTRF receptor neutralisation: antibody titrated against biotinylated hOX40L and OX40RFc-AF647; mean +/- SEM of three experiments. Background: In TR-FRET formats the signal depends on donor and acceptor labels being close together.
Assay [4] addresses T2, Recombinant Rhesus OX40L (Leader Sequence, FLAG and Isoleucine zipper included) (Rhesus (Macaca mulatta)).
T2 construct: also called RhsOX40L; Rhesus monkey OX40L
Put plainly: SPR (ProteOn XPR36), antibody captured, rhesus OX40L at 256 nM, 25 C; CNROR = cannot resolve off-rate. The protocol: as §1

Assay [5] has as its target T1, Recombinant Human OX40L (Leader …). The assay is described as follows: HTRF ligand/receptor neutralisation: antibody titrated against biotinylated hOX40L; the blocked ligand is OX40RFc-AF647; streptavidin cryptate detection. The protocol:
Fully human purified IgG or other inhibitor were tested in order to establish the clone potency as measured by IC₅₀ values in the assay. Antibodies recombinantly expressed and purified were titrated by diluting in HTRF assay buffer and 5 μL of this titration transferred to a white 384 well low volume non-binding surface polystyrene plate (Greiner). Biotinylated OX40L was diluted in HTRF assay buffer to a working concentration of 2.4 nM and 5 μL added. […] Streptavidin cryptate (CISBIO) was diluted in HTRF assay buffer to working concentration of 1:100 and 5 μL added to all wells of the plate. Plates were covered, protected from light and incubated at room temperature for 3 hrs prior to reading time resolved fluorescence at 620 nm and 665 nm emission wavelengths using an EnVision plate reader (Perkin Elmer). Data were analysed by calculating delta F as described in Equation 4 and percentage of receptor for each sample according to Equation 5 or in some cases Equation 6. IC₅₀ values were determined using GraphPad Prism software by curve fitting using a four-parameter logistic equation (Equation 7) (FIG. 1).

T1 sequence (chain, as listed by the source limits assumed): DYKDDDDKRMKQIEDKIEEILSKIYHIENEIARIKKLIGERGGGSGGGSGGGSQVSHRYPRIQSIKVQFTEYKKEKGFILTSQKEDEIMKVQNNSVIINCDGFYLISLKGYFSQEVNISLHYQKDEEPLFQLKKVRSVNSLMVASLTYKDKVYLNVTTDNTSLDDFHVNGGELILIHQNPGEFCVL
T2 sequence (chain, as listed by the source limits assumed): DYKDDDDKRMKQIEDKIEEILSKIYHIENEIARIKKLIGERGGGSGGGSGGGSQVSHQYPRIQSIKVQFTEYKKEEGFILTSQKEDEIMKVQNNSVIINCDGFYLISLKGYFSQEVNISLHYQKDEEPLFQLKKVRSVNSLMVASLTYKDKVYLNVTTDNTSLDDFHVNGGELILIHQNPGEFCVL

B1: 9H04 (hybridoma) (antibody, V domains shown)
VH: QVQLVESGGGLVKPGGSLRLSCAASRFTLSDYYMTWIRQAPGKGLEWVSYISSSGNTIYYADSVKGRFTISRDNAKNSLYLQMNSLRAEDTAVYYCARDLSGSYWDYYYGMDVWGQGTTVTVSS
VL: AIQLTQSPSSLSTSVGDRVTIACRASQGINNALAWYQQKPGKAPKLLIYDASSLESGVPSRFSGSGSGTDFTLTISSLQPEDFATYYCQQFNSYPRTFGQGTKVEIK
notes: Purified from hybridoma supernatant as a murine/human chimeric antibody (human variable domains, mouse constant regions); also called 09H04
Regarding B1, in assay [1], the Kd turned out to be 5.3 nM.

B2: 19H01 (hybridoma) (antibody, V domains shown)
VH: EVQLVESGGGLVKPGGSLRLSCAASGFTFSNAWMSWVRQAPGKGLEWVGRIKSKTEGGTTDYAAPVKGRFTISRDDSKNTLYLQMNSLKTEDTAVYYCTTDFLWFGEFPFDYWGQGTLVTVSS
VL: DIQMTQSPSSLSASVGDRVTITCRASQGISNYLAWYQQKPGKIPKLLIYAASTLQSGVPSRFSGSGSGTDFTLTISSLQPEDVATYYCQKYNSAPRTFGQGTKVEIK
notes: Purified from hybridoma supernatant as a murine/human chimeric antibody (human variable domains, mouse constant regions)
Take B2: in assay [1], the Kd came to 2.2 nM.

B3: 10A07 (human) (antibody, V domains shown)
VH: EVQLVESGGVLVQPGGSLRLSCAASGFTFSSYIMTWVRQAPGKGLEWVSGISGSGGGTYYADSMKGRFTISRDNSKNTLYLQMNSLRVEDTAVYYCAKDRLGPITLVRGGYYYGMDVWGQGTTVTVSS
VL: DIQMTQSPSSLSASVGDRVTITCRASQSISDYLNWYQQKPGKAPKFLIYAASSLQSGVPSRFSGSGSGTDFTLTVSSLQPEDFATYYCQQSYSTPRTFGQGTRVEIKR
notes: also called 10A07 IgG4PE; 10A7 IgG4-PE
What is called IC50 is the concentration that gives 50% inhibition. Consider B3, for which the “Primary T-cell Assay IC50 nM (recombinant OX40L induced IL2 release from primary human T-cells)” value in assay [2] amounted to 0.83 nM. Moreover, in assay [3], the concentration for half-maximal inhibition (IC50) amounted to 1.2 nM. Also, the binding result in assay [4] is listed as “binds”. Further, in assay [5], the “IC50 (read off the curve)” value was roughly 1000 pM.

B4: 10A07 (hybridoma) (antibody, V domains shown)
VH: B3 VH
VL: DIQMTQSPSSLSASVGDRVTITCRASQSISDYLNWYQQKPGKAPKFLIYAASSLQSGVPSRFSGSGSGTDFTLTVSSLQPEDFATYYCQQSYSTPRTFGQGTRVEIK
notes: Purified from hybridoma supernatant as a murine/human chimeric antibody (human variable domains, mouse constant regions); also called 10A7
With B4, the binding result in assay [4] is recorded as “binds”.

B5: 2D10 (human) (antibody, human IgG4 S228P, kappa, V domains shown)
VH: EVQLVESGGGLVQPGGSLRLSCAASGFTFSNYAMNWVRQAPGKGLEWVSTISGSGGATRYADSVKGRFTISRDNSRNTVYLQMNSLRVEDTAVFYCTKDRLIMATVRGPYYYGMDVWGQGTTVTVSS
VL: DIQMTQSPSSLSASVGDRVTITCRASQSISSYLNWYQQKPGKAPNLLIYAASSLQSGVPSRFSGSGSETDFTLTISSLQPEDFATYYCQQSHSVSFTFGPGTKVDIKR
notes: Recombinant fully human IgG4-PE/kappa; also called 02D10 IgG4-PE; 2D10 IgG4PE
In the case of B5, the “Primary T-cell Assay IC50 nM (recombinant OX40L induced IL2 release from primary human T-cells)” value in assay [2] amounted to 0.81 nM. Further, the 50% inhibitory concentration (IC50) in assay [3] is 0.75 nM. The binding result in assay [4] is on record as “binds”. In assay [5], the “IC50 (read off the curve)” value was roughly 800 pM.

B6: 2D10 (hybridoma) (antibody, V domains shown)
VH: B5 VH
VL: DIQMTQSPSSLSASVGDRVTITCRASQSISSYLNWYQQKPGKAPNLLIYAASSLQSGVPSRFSGSGSETDFTLTISSLQPEDFATYYCQQSHSVSFTFGPGTKVDIK
notes: Purified from hybridoma supernatant as a murine/human chimeric antibody (human variable domains, mouse constant regions); also called 02D10
On to B6, for which the binding result in assay [4] is “binds”.
